Substrate in this series: CN(C)C(=N)NCCC[C@H](N)C(=O)O
Put plainly: enzyme kinetics of refolded recombinant enzyme. The format is biochemical, Homo sapiens. To be noted: authors' own initial, unpublished results; assay conditions not told.

What is called Km is the substrate concentration at which the rate is half of its maximum.

B1: recombinant human DDAH-2 (Homo sapiens) (protein)
chain: MGTPGEGLGRCSHALIRGVPESLASGEGAGAGLPALDLAKAQREHGVLGGKLRQRLGLQLLELPPEESLPLGPLLGDTAVIQGDTALITRPWSPARRPEVDGVRKALQDLGLRIVEIGDENATLDGTDVLFTGREFFVGLSKWTNHRGAEIVADTFRDFAVSTVPVSGPSHLRGLCGMGGPRTVVAGSSDAAQKAVRAMAVLTDHPYASLTLPDDAAADCLFLRPGLPGVPPFLLHRGGGDLPNSQEALQKLSDVTLVPVSCSELEKAGAGLSSLCLVLSTRPHS
Turning to B1, the Michaelis-Menten constant (Km) came out at 16 µM.

The values above are taken from publication PMC2767407.
